Laboratory results taken from patent publication US20030186329A1, “Use of substrate subtraction libraries to distinguish enzyme specificities” (The Scripps Research Institute, priority 1998, published 2003).

Legend:
[1] = molecular target: T1, u-PA (Homo sapiens, UniProt P00749); test: Cleavage of maltose binding protein-QRGRSA-HY4 fusion protein by u-PA (SDS-PAGE); format: biochemical; conditions: 150 nM enzyme, 16 hours at 25 C
T1 construct: purchased Jack Henkin (Abbott Laboratories)
Experimental: (§1) The fusion consists of maltose binding protein fused to the amino terminus of the HY4 gene product of Arabidopsis thaliana with a linking region in between coding for the amino acid sequence QRGRSA, which is cleaved by t-PA between R and S. The concentration of fusion protein in each lane is […] and the concentration of u-PA or […] is 150 nM. The reaction buffer contains 50 mM Tris pH 7.5, 0.1 M NaCl, 1 mM EDTA, and 0.01% Tween 20. Reactions were set up in a total volume of […] and allowed to incubate 16 hours at 25 C. and then stopped by the addition of […] of 5× loading buffer and separated by electrophoresis on 12% polyacrylamide. The gel was stained with Coomassie Brilliant Blue 30 minutes and de-stained overnight.

[2] = molecular target: t-PA (Homo sapiens, UniProt P00750); test: Cleavage of maltose binding protein-QRGRSA-HY4 fusion protein by t-PA (SDS-PAGE); format: biochemical; conditions: 150 nM enzyme, 16 hours at 25 C
t-PA, sequence (P00750 36-562): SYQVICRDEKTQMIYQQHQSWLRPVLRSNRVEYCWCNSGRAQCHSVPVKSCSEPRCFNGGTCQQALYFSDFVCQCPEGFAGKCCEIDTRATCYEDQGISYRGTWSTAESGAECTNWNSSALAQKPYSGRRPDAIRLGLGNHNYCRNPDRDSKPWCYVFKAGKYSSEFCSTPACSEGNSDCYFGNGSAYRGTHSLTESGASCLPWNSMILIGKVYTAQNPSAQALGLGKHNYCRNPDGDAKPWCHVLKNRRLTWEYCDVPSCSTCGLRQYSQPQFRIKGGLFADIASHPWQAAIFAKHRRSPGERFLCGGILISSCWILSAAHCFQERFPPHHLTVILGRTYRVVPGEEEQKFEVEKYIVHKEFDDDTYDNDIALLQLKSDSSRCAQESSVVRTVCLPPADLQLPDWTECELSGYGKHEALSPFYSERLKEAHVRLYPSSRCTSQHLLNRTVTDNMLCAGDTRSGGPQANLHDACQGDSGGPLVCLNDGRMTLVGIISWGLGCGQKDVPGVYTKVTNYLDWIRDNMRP
Experimental: as §1

cleavage of fusion protein by u-PA [1]: did not | cleavage of fusion protein by t-PA [2]: readily cleaved
B1: fusion protein: maltose binding protein fused to HY4 gene product of Arabidopsis thaliana with linking region QRGRSA (protein)
chain: QRGRSAMSGSVSGCGSGGCSIVWFRRDLRVEDNPALAAAVRAGPVIALFVWAPEEEGHYHPGRVSRWWLKNSLAQLDSSLRSLGTCLITKRSTDSVASLLDVVKSTGASQIFFNHLYDPLSLVRDHRAKDVLTAQGIAVRSFNADLLYEPWEVTDELGRPFSMFAAFWERCLSMPYDPESPLLPPKKIISGDVSKCVADPLVFEDDSEKGSNALLARAWSPGWSNGDKALTTFINGPLLEYSKNRRKADSATTSFLSPHLHFGEVSVRKVFHLVRIKQVAWANEGNEAGEESVNLFLKSIGLREYSRYISFNHPYSHERPLLGHLKFFPWAVDENYFKAWRQGRTGYPLVDAGMRELWATGWLHDRIRVVVSSFFVKVLQLPWRWGMKYFWDTLLDADLESDALGWQYITGTLPDSREFDRIDNPQFEGYKFDPNGEYVRRWLPELSRLPTDWIHHPWNAPESVLQAAGIELGSNYPLPIVGLDEAKARLHEALSQMWQLEAASRAAIENGSEEGLGDSAEVEEAPIEFPRDITMEETEPTRLNPNRRYEDQMVPSITSSLIRPEEDEESSLNLRNSVGDSRAEVPRNMVNTNQAQQRRAEPASNQVTAMIPEFNIRIVAESTEDSTAESSSSGRRERSGGIVPEWSPGYSEQFPSEENGIGGGSTTSSYLQNHHEILNWRRLSQTG
modifications: left off: large carriers
